Laboratory results from publication PMC3880865.
Like-named read-outs stand apart in the source and are kept apart here.

Key:
[1] = target: GST-CBL47–435 WT (human) (UniProt P22681); assay: SPR
[2] = target: GST-CBL47–435 Y368F pY371 (human) (UniProt P22681); assay: SPR
[3] = target: CBL47–435 pY371 (human) (UniProt P22681)
[4] = target: GST-CBL47–435 WT (human) (UniProt P22681); assay: SPR; remark: listed apart in the source
[5] = target: GST-CBL47–435 M222E (human) (UniProt P22681); assay: SPR
[6] = target: GST-CBL47–435 Y368F (human) (UniProt P22681); assay: SPR
[7] = target: GST-CBL47–435 Y371F (human) (UniProt P22681); assay: SPR
GST-CBL47–435 Y371F (human), sequence (P22681 47-435 Y371F): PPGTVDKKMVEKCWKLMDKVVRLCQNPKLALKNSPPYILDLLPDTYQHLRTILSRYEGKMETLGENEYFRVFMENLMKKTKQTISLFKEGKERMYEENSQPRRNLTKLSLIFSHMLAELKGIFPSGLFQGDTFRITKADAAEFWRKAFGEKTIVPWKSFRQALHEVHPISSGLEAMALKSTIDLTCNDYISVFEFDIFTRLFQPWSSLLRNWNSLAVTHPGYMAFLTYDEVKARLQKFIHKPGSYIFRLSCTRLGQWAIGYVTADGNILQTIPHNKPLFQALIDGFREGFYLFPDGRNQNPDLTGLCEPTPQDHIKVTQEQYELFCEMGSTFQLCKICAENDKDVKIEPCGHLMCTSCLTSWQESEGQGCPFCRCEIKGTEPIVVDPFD

UbcH5B (from UniProt P62837 1-147) (enzyme; other documents disagree on this pair), sequence (P62837 whole entry): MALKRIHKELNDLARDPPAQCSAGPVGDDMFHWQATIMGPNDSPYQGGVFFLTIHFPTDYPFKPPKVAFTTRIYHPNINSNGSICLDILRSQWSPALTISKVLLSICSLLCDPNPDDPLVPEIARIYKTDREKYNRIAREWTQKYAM
GST-CBL47–435 WT (human), sequence (P22681 47-435): as the sequence (P22681 47-435 Y371F) above, with F325Y counted along it
GST-CBL47–435 Y368F pY371 (human), sequence (P22681 47-435 Y368F): as the sequence (P22681 47-435 Y371F) above, with Y322F, F325Y counted along it
GST-CBL47–435 M222E (human), sequence (P22681 47-435 M222E): as the sequence (P22681 47-435 Y371F) above, with M176E, F325Y counted along it
UbcH5B (from UniProt P62837 1-147) (enzyme), sequence (P62837 whole entry): as the sequence (P62837 whole entry) above
GST-CBL47–435 Y368F (human), sequence (P22681 47-435 Y368F): as the sequence (P22681 47-435 Y371F) above, with Y322F, F325Y counted along it
CBL47–435 pY371 (human), sequence (P22681 47-435): as the sequence (P22681 47-435 Y371F) above, with F325Y counted along it

Kd [1] [µM]	Kd [2] [µM]	Km (UbcH5B~Ub) of CBL47–435 pY371 autoubiquitination, Michaelis-Menten, 22°C [3] [μM]	Kd [4] [µM]	Kd [5] [µM]	Kd [6] [µM]	Kd [7] [µM]	Substance
17	11	–	–	–	–	–	ZAP-70 peptide
–	–	6.5	–	–	–	–	UbcH5B (from UniProt P62837 1-147) (enzyme)
311	28	–	244	70	138	250	UbcH5B (from UniProt P62837 1-147) (enzyme; other documents disagree on this pair)
